In patent US20180030127A1 (APRILBIO, published 2018):

Legend:
human serum albumin [1] = biological target: T1, human serum albumin (human, UniProt P02768 25-609); assay: monoclonal phage ELISA at pH 7.4: Fab on phage, about 10^8 CFU/well, on antigen coated at 5 ug/ml; anti-human kappa-HRPO, TMB, A450
T1 construct: Bought protein; also called HSA; human SA
Experimental: (§1) For the monoclonal phage ELISA, the recombinant phage was obtained from positive E. coli clones by phage rescue, and ˜10⁸ CFU/well were added to MaxiSorb ELISA plates (Nunc, Roskilde, Denmark) that were coated with 5 μg/ml HSA, RSA, MSA or BSA. The phage was allowed to bind to the antigens either at pH 6 or at pH 7.4 for 1 h at 37° C. A goat anti-human kappa L Ab-conjugated with HRPO (Sigma-Aldrich) was used as a secondary antibody. The binding signals were visualized with a TMB substrate (BD Science, San Jose, Calif., USA), and the absorbance at 450 nm was measured using an ELISA reader (Bio-Rad, Hercules, Calif., USA). The data represent the average of three experiments standard deviation. For the conventional ELISA, the various antigens [human SA, rat SA, mouse SA, monkey SA (Alpha diagnositic Intl., San Antonio, Tex., USA), canine SA (CUSABIO, Wuhan, Hubei, China). rabbit SA (Sigma-Aldrich), epidermal growth factor receptor (EGFR) (R&D systems, Minneapolis, Minn., USA), epithelial cell adhesion molecule (EpCAM) (R&D systems), IL-15 receptor a (IL-15Ra) (R&D systems), IL-10 (eBioscience, San Diego, Calif., USA), CD16a (R&D systems), c-MET (Sinobiological, Beijing, China)] at 5 μg/ml concentrations were immobilized on the microtiter plates, and the Fab molecules were allowed to bind to the antigens, and detected as above. To determine the concentration of soluble Fab or Fab-hGH fusion proteins, a sandwich ELISA was performed using a mouse anti-human IgG Fd mAb (AprilBio) as a capturing Ab and the goat anti-human kappa L chain pAb-HRPO conjugated (Sigma-Aldrich) as a detecting antibody. The human Fab fragment (Bethyl, Montgomery, Tex., USA) with a known concentration was used to draw the standard curve. For detecting the hGH domain, T-20, a goat pAb specific for the C-terminus of the hGH (Santacruz Biotechnology, Dallas, Tex., USA) and NYThGH, a mouse mAb specific for full-length hGH (Prospec, East Brunswick, N.J., USA) were used followed by a rabbit anti-goat IgG pAb-HRPO conjugated (Sigma-Aldrich) or a goat anti-mouse IgG pAb-HRPO conjugated (Sigma-Aldrich), respectively as a secondary antibody. A goat anti-human GCSF pAb (R&D Systems) was used to detecting the G-CSF domain, and a rabbit anti-human IFN-β pAb (PEPROTECH, Rocky Hill, USA) was used to detect the IFN-β domain.

bovine serum albumin [2] = biological target: T2, bovine serum albumin (bovine, UniProt P02769 25-607); assay: monoclonal phage ELISA at pH 6, antigen coated at 5 ug/ml, anti-human kappa-HRPO, A450
T2 construct: also called BSA; bovine SA
Experimental: as §1

rat serum albumin [3] = biological target: T3, rat serum albumin (rat, UniProt P02770 25-608); assay: as above
T3 construct: Bought protein; also called RSA; rat SA
Experimental: as §1

mouse serum albumin [4] = biological target: T4, mouse serum albumin (mouse, UniProt P07724 25-608); assay: as above
T4 construct: Bought protein; also called MSA; mouse SA
Experimental: as §1

mouse serum albumin [5] = biological target: T4, mouse serum albumin; assay: monoclonal phage ELISA at pH 6: Fab on phage, about 10^8 CFU/well, on antigen coated at 5 ug/ml; anti-human kappa-HRPO, TMB, A450
Experimental: (§2) For the monoclonal phage ELISA, the recombinant phage was obtained from positive E. coli clones by phage rescue, and ˜10⁸ CFU/well were added to MaxiSorb ELISA plates (Nunc, Roskilde, Denmark) that were coated with 5 μg/ml HSA, RSA, MSA or BSA. The phage was allowed to bind to the antigens either at pH 6 or at pH 7.4 for 1 h at 37° C. A goat anti-human kappa L Ab-conjugated with HRPO (Sigma-Aldrich) was used as a secondary antibody. The binding signals were visualized with a TMB substrate (BD Science, San Jose, Calif., USA), and the absorbance at 450 nm was measured using an ELISA reader (Bio-Rad, Hercules, Calif., USA). The data represent the average of three experiments standard deviation. For the conventional ELISA, the various antigens [human SA, rat SA, mouse SA, monkey SA (Alpha diagnositic Intl., San Antonio, Tex., USA), canine SA (CUSABIO, Wuhan, Hubei, China). rabbit SA (Sigma-Aldrich), epidermal growth factor receptor (EGFR) (R&D systems, Minneapolis, Minn., USA), epithelial cell adhesion molecule (EpCAM) (R&D systems), IL-15 receptor a (IL-15Ra) (R&D systems), IL-10 (eBioscience, San Diego, Calif., USA), CD16a (R&D systems), c-MET (Sinobiological, Beijing, China)] at 5 μg/ml concentrations were immobilized on the microtiter plates, and the Fab molecules were allowed to bind to the antigens, and detected as above. […]

human serum albumin [6] = biological target: T1, human serum albumin; assay: ELISA at pH 7.4: purified soluble Fab titrated on antigen coated at 5 ug/ml; anti-human kappa L chain pAb-HRPO, TMB, A450
Experimental: as §2

rat serum albumin [7] = biological target: T3, rat serum albumin; assay: as above
Experimental: as §2

human serum albumin [8] = biological target: T1, human serum albumin; assay: ELISA at pH 6.0: purified soluble Fab titrated on antigen coated at 5 ug/ml; anti-human kappa L chain pAb-HRPO, TMB, A450
Experimental: as §2

rat serum albumin [9] = biological target: T3, rat serum albumin; assay: as above
Experimental: as §2

rat serum albumin [10] = biological target: T3, rat serum albumin; assay: monoclonal phage ELISA at pH 7.4: Fab on phage, about 10^8 CFU/well, on antigen coated at 5 ug/ml; anti-human kappa-HRPO, TMB, A450
Experimental: as §1

mouse serum albumin [11] = biological target: T4, mouse serum albumin; assay: as above
Experimental: as §1

rat serum albumin [12] = biological target: T3, rat serum albumin; assay: monoclonal phage ELISA at pH 7.4, antigen coated at 5 ug/ml, anti-human kappa-HRPO, A450
Experimental: as §1

mouse serum albumin [13] = biological target: T4, mouse serum albumin; assay: as above
Experimental: as §1

bovine serum albumin [14] = biological target: T2, bovine serum albumin; assay: as above
Experimental: as §1

T3 sequence (P02770 25-608 limits assumed): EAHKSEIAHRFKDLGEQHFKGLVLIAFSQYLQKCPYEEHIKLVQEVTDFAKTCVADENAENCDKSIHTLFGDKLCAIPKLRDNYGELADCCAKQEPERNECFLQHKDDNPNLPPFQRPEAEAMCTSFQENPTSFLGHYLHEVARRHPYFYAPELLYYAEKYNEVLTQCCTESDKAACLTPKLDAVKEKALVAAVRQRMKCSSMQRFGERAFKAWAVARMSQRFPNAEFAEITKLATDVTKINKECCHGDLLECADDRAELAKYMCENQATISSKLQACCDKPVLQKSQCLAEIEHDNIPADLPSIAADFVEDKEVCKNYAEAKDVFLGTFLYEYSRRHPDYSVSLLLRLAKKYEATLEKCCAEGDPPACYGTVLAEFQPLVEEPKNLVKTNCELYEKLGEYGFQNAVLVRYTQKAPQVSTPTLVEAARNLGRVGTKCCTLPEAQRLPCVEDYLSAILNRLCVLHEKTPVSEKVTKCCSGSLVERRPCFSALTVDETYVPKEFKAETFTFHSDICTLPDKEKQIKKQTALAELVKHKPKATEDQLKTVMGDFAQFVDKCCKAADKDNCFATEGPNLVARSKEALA
T4 sequence (P07724 25-608 limits assumed): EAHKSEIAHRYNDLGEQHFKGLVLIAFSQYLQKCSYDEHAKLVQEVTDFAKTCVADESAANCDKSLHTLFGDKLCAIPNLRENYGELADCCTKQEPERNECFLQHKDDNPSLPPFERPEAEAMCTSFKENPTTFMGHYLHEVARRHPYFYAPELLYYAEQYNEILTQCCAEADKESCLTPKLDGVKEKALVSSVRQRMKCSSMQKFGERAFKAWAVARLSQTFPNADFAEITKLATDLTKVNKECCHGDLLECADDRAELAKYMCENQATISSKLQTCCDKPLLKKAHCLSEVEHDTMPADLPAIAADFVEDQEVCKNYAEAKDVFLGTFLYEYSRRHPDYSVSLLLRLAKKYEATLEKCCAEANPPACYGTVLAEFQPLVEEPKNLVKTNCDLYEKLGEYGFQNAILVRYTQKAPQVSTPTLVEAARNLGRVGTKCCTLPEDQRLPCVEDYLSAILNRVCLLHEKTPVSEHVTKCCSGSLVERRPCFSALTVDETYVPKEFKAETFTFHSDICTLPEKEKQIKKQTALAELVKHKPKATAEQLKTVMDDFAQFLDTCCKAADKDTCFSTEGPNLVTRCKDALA
T2 sequence (P02769 25-607 limits assumed): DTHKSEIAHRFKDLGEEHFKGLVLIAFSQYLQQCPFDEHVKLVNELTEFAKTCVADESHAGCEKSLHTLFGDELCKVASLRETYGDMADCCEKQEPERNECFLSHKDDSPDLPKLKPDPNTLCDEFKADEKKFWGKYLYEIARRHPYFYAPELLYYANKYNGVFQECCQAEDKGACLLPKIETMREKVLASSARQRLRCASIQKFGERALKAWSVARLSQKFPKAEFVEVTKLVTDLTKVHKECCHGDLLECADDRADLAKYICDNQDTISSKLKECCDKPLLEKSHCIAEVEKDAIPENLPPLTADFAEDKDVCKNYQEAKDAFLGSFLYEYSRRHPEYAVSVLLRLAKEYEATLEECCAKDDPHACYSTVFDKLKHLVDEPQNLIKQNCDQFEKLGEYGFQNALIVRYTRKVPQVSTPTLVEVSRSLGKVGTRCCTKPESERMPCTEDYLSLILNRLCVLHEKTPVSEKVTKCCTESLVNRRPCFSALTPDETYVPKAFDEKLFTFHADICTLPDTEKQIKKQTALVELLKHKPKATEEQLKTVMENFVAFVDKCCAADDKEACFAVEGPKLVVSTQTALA

B1: SA141 (Fab, V domains shown)
VH: QVQLVQSGGGLVQPGGSLRLSCAASGFTFSSYAMSWVRQAPGKGLEWLSVISHDGGFQYYADSVKGRFTVSRDNSKNTLYLQMNSLRAEDTAVYYCARAGWLRQYGMDVWGQGTLVTVSS
VL: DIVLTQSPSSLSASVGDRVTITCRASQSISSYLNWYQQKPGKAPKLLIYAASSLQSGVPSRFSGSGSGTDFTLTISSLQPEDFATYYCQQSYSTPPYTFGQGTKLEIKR
notes: also called SA141 Fab
binding result (human serum albumin [1]): binds
binding result (bovine serum albumin [2]): no binding
binding result (rat serum albumin [3]): no binding
binding result (mouse serum albumin [4]): no binding

B2: SL310 (Fab, V domains shown)
VH: QVQLVQSGGGPVKPGGSLRLSCAASGFMFRAYSMNWVRQAPGKGLEWVSSISSSGRYIHYADSVKGRFTISRDNAKNSLYLQMNSLRAEDTAVYYCARETVMAGKALDYWGQGTLVTVSS
VL: ELVLTQSPGTLSLSPGERATLSCRASQSVSSSSLAWYQQKPGQAPRLLIYGASSRATGIPDRFSGSGSGTDFTLTISSLQPEDAATYYCQKYSSYPLTFGQGTKLEIKR
notes: Human Fab (VH+CH1, VL+CLk); tested on phage and as soluble Fab purified from E. coli; also called SL310 Fab
binding result (mouse serum albumin [5]): binds
EC50 (read off the curve) (human serum albumin [6]): ~0.3 µg/mL
EC50 (read off the curve) (rat serum albumin [7]): ~0.2 µg/mL
binding result (bovine serum albumin [2]): no binding
EC50 (read off the curve) (human serum albumin [8]): ~0.1 µg/mL
EC50 (read off the curve) (rat serum albumin [9]): ~0.6 µg/mL

B3: SL301 (Fab, V domains shown)
VH: B2 VH
VL: ELVLTQSPGTLSLSPGERATLSCRASETVSSRQLAWYQQKPGQAPRLLIYGASSRATGIPDRFSGSGSGTDFTLTISRLEPEDSAVFYCQQYGSSPRTFGGGTKLEIKR
notes: Human Fab (VH+CH1, VL+CLk); tested on phage and as soluble Fab purified from E. coli; also called SL301 Fab
binding result (human serum albumin [1]): binds
binding result (rat serum albumin [10]): binds
binding result (bovine serum albumin [2]): no binding

B4: SL18 (Fab, V domains shown)
VH: EVQLVQSGTEVKKPGESLKISCKISGYSFTAYWIAWVRQMPGKGLEWMGMIWPPDADARYSPSFQGQVTFSVDKSISTAYLQWHSLKTSDTAVYYCARLYSGSYSPWGQGTLVTVSS
VL: ELVLTQSPGTLSLSPGERATLSCRASQSIFNYVAWYQQKPGQAPRLLIYDASNRATGIPARFSGSGSGTDFTLTISSLEPEDFAVYYCQQRSKWPPTWTFGQGTRVDIKR
notes: Human Fab (VH+CH1, VL+CLk); tested on phage and as soluble Fab purified from E. coli; also called SL18 Fab
binding result (human serum albumin [1]): binds
binding result (rat serum albumin [10]): binds
binding result (mouse serum albumin [11]): binds
binding result (bovine serum albumin [2]): no binding

B5: SA140 (Fab, V domains shown)
VH: QVQLVQSGGGVVQTGGSLRLSCAASGFTFRNYGIHWVRQAPGKGLEWVASISYDGSNKYYADSVKGRFTISRDNSRNTVHVQMDSLRGGDTAVYYCARDVHYYGSGSYYNAFDIWGQGTLVTVSS
VL: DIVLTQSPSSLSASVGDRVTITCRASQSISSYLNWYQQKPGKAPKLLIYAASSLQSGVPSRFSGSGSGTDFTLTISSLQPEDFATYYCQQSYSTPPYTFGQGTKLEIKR
notes: also called SA140 Fab
binding result (rat serum albumin [12]): no binding
binding result (mouse serum albumin [13]): no binding
binding result (bovine serum albumin [2]): no binding

B6: SA139 (Fab, V domains shown)
VH: EVQLLQSGAEVKEPGASVKVSCKASGYTFSSYGISWVRQAPGQGLEWVGRINTYNGNTGYAQRLQGRVTMTTDTSTSIAYMEVRSLRSDDTAVYYCARLGHCQRGICSDALDTWGQGTMVTVSS
VL: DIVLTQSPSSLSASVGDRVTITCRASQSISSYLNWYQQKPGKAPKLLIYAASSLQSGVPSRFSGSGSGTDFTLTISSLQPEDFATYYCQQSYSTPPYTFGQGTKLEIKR
notes: Human Fab (VH+CH1, VL+CLk); also called SA139 Fab
binding result (bovine serum albumin [14]): no binding
binding result (rat serum albumin [12]): no binding
binding result (mouse serum albumin [13]): no binding
binding result (human serum albumin [1]): binds
